Source: PMC9001736 (Scientific Reports, 2022)

Tests used:
[1] = target: T1, ZZ domain of HERC2 (HERC2ZZ, aa 2702–2755 with additional tryptophan at the C-terminus) (human, UniProt O95714 2702-2755); assay: NMR titration; 1H,15N HSQC of 0.1–0.2 mM 15N-labelled HERC2 protein titrated with unlabeled protein or peptide; 298 K; 20 mM Tris (pH 6.8) or 20 mM PBS (pH 6.5), 150 mM NaCl, 2 mM DTT, 10% D2O; details: both partners purified
T1 construct: E3 ubiquitin ligase HERC2, human, ZZ domain, aa 2702–2755 of the 4834 residue protein; additional tryptophan residue introduced at the C-terminus of HERC2ZZ to quantify the protein and for the tryptophan fluorescence assay; 15N-labelled in the NMR titrations where it is the observed protein; also called HERCZZ; WT HERC2ZZ; source: E. coli BL21 (DE3) RIL, purified (Ni-NTA, ULP1 cleavage; unlabeled …)
T1 chain: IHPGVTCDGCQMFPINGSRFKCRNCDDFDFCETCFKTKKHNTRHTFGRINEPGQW

[2] = target: T2, HERC2_(ZZ-DOC) (aa 2702–2914), construct encompassing both ZZ and DOC domains (human, UniProt O95714 2702-2914); assay: as above; details: both partners purified
T2 construct: E3 ubiquitin ligase HERC2, human, ZZ and DOC domains, aa 2702–2914; 15N-labelled for NMR; also called linked HERC2_(ZZ-DOC); source: E. coli BL21 (DE3) RIL, purified (Ni-NTA, ULP1 cleavage); not shown: His8x-SUMO, N-terminal, cleaved

B1: histone H3_(1–12) peptide (aa 1–12 of H3) (peptide, UniProt P68431 2-13, looked up)
peptide: ARTKQTARKSTG
notes: histone H3, aa 1–12; also called H3 peptide
binding result [1]: binds
binding result [2]: binds
